Experimental findings from the supplement of paper PMC10126150 are described below.

± gives the standard deviation of the averaged measurements.

The subject of the data set is ATP. Description: switch fluorescence ratio, 500 uM ATP over buffer (Cy3 cluster intensity, sum of 5 cycles each) (fold (ratio)); higher = stronger signal-on switching upon ATP binding; sequences stand for … in TCGTCGGCAGCGTCAGATGTGTATAAGAGACAGTTTTTTTTTTTTTTTTTTTTTTTTT…TC. To be noted: aptamer strand: ATP DNA aptamer (quencher-CACCTGGGGGAGTATTGCGGAGGAAGG + anchor), 100 nM annealed; ATP concentration: 500 uM. In a few lines: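 Five buffer/ATP imaging cycles were run on Cy3-labelled switching-strand clusters on a modified Illumina MiSeq flow-cell, with NaOH stripping and re-annealing between cycles. In each cycle, clusters annealed to 100 nM quencher-labelled ATP aptamer were imaged in selection buffer, then after 15 min with 500 uM ATP at 22 °C. Per cluster, the fluorescence ratio is summed target-cycle over summed buffer-cycle Cy3 intensity, averaged per switch-domain sequence. Only clusters within 100-1000 RFU were kept.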
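Also: ATP exposure 15 min at 22 °C before imaging.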

In the case of AGAGGCCTTG, the switch fluorescence ratio turned out to be 0.969 ± 0.013.
Consider AAGGGGATGG, for which the switch fluorescence ratio came out at 0.968 ± 0.038.
Then CGTGGCGGAT, with 0.9709 ± 0.0092.
Consider CGTTGGGGGT, for which the switch fluorescence ratio is 0.978 ± 0.022.
In the case of TTAAAATTAT it was 0.996 ± 0.023.
Take TGGATGTTAT: the switch fluorescence ratio was 1.02 ± 0.092.
In the case of TGGGAGAGTG it was 0.994 ± 0.0055; in that of AGCTGTAGTA, 1.01 ± 0.011; in that of TCACGGTAAT, 1.16 ± 0.097.
Turning to GATTGCAGAT, the switch fluorescence ratio is 1.02 ± 0.034.
Regarding CGAGTGTGTG, the switch fluorescence ratio was determined as 0.97 ± 0.024.
Then ATATTGTTGT, with 0.997 ± 0.057.
In the case of TAATAGGGGG it was 1.02 ± 0.035; in that of TTATGGTTAT, 1.03 ± 0.015; in that of AAACGAATGG, 0.981 ± 0.022.
For the sequence ATAACGAATG, the switch fluorescence ratio was 1.01 ± 0.024.
In the case of ACTGAACGGT it was 1.14 ± 0.055.
In the case of AAAGGTTTCG it was 0.989 ± 0.015.
Then TTGCTAAAAA, with 1.04 ± 0.03.
For the sequence TGTTTTAGGA, the switch fluorescence ratio came to 0.993 ± 0.015.
Then TCGATCGCAT, with 2.51 ± 2.2; and CGACGTTAGT, with 0.995 ± 0.025; and ATGGTGTGTG, with 1.01 ± 0.033.
In the case of GCGATTAAGG it was 0.9904 ± 0.0013.
Take CTTGGAGTTA: the switch fluorescence ratio stood at 0.997 ± 0.025.
As to CAGTGCGCTA, the switch fluorescence ratio was 1.15 ± 0.02.
As for TAATTGAAGA, the switch fluorescence ratio was found to be 0.971 ± 0.012.
Then GAGGAGAAGA, with 1.02 ± 0.027; and ACATTATTTT, with 1.02 ± 0.025; and ATAATCGATT, with 0.978 ± 0.011.
Then CGGGTTGCAG, with 0.97 ± 0.019; and ATGTGGGATA, with 1.01 ± 0.063.
TTTGGGGGTG: the switch fluorescence ratio amounted to 1.02 ± 0.038.
In the case of TACCAGGGGT, the switch fluorescence ratio amounted to 0.9909 ± 0.0039.
As to TTTATTCCGT, the switch fluorescence ratio worked out at 0.999 ± 0.037.
As to GTGTTAGGGC, the switch fluorescence ratio was determined as 0.9919 ± 0.0057.
In the case of ACGGAATTGT it was 1.07 ± 0.029.
In the case of AAAGGGAAT, the switch fluorescence ratio amounted to 1.02 ± 0.021.
In the case of TGGGTTTGC it was 0.98 ± 0.054; in that of GCCAGTAAGT, 0.994 ± 0.039; in that of AGAGAGAAAG, 0.97 ± 0.025.
On to GGCCGTTTGG, for which the switch fluorescence ratio is 0.981 ± 0.032.
As for GAGAGCCGAA, the switch fluorescence ratio is 1.02 ± 0.062.
For CCCAATGATC, the switch fluorescence ratio is 1.52 ± 0.043.
In the case of TTTTTCACTG it was 1 ± 0.052.
As for ACGGCCTGTT, the switch fluorescence ratio is 1.02 ± 0.017.
Take TGGCGTTGAT: the switch fluorescence ratio was determined as 0.984 ± 0.019.
In the case of TTGAGAGGGG, the switch fluorescence ratio came out at 0.981 ± 0.021.
For GGTGTATGAA, the switch fluorescence ratio is 0.994 ± 0.029.
CGTTTTATGC: the switch fluorescence ratio was found to be 0.947 ± 0.059.
As to TTATTGGTA, the switch fluorescence ratio amounted to 1.04 ± 0.016.
Consider TTTGTGTTCT, for which the switch fluorescence ratio came out at 0.9786 ± 0.0048.
In the case of CTAAGGCGAT it was 1.06 ± 0.12; in that of CGGAGGGGAT, 1.062 ± 0.005; in that of TATGATTCGG, 0.992 ± 0.057.
Then AAAAGGGTA, with 0.957 ± 0.048; and GACGGGGCGG, with 0.994 ± 0.031.
In the case of GGGCCTGGAG it was 1.012 ± 0.0086.
As to CGTTGTATGG, the switch fluorescence ratio is 1.01 ± 0.046.
Take AAAGTAGGCT: the switch fluorescence ratio worked out at 1.01 ± 0.053.
Take TGTTGCAATT: the switch fluorescence ratio came to 1.01 ± 0.052.
Then TTAGACGGGT, with 0.982 ± 0.0043; and TATCCGACAT, with 1.15 ± 0.039; and AGGCATTATA, with 1.01 ± 0.013.
In the case of AGTAATGGTT it was 1.01 ± 0.014; in that of CTAGACCAGG, 1.01 ± 0.014; in that of CGGTAGTCGG, 1.03 ± 0.027.
In the case of TGGAGCGAGG it was 1.02 ± 0.00015.
Consider GGGGGGGGGG, for which the switch fluorescence ratio was 1.02 ± 0.068.
For the sequence CCTCAGCAGA, the switch fluorescence ratio came to 3.75 ± 0.53.
In the case of AATAATGCGG it was 0.9969 ± 0.0071; in that of TTTTATAGAA, 1.0092 ± 0.00051; in that of TTGGGGATGT, 1 ± 0.031.
In the case of TCCCTTTGGC it was 1.01 ± 0.04; in that of TTTTAGTTTG, 1.01 ± 0.035.
In the case of GAGTTCCCGA it was 0.977 ± 0.048; in that of GGGTCAGGTG, 3.44 ± 0.48.
As for ACCTGGCGTA, the switch fluorescence ratio was determined as 1.04 ± 0.0016.
With GGGAATTTAA, the switch fluorescence ratio came out at 1.02 ± 0.019.
Consider TGAGGGATGC, for which the switch fluorescence ratio was found to be 0.968 ± 0.029.
In the case of TTTGATGTTG it was 0.976 ± 0.033.
Turning to GTCATAGGTG, the switch fluorescence ratio is 1.28 ± 0.087.
In the case of TGGTAGCTGT it was 1.01 ± 0.062; in that of TAGAATCAGC, 0.99 ± 0.07.
In the case of CTGAGGGGAT, the switch fluorescence ratio turned out to be 1.1 ± 0.047.
On to TTCTCGCCAA, for which the switch fluorescence ratio was 1.08 ± 0.022.
With TGGGACTATT, the switch fluorescence ratio is 1.01 ± 0.076.
Regarding ATGCCGGGTG, the switch fluorescence ratio was 1.07 ± 0.047.
Consider TAAGACAAAG, for which the switch fluorescence ratio was determined as 0.992 ± 0.053.
As for GGTAGGGGTA, the switch fluorescence ratio was 1.03 ± 0.084.
As to GTCAATTGCA, the switch fluorescence ratio turned out to be 0.999 ± 0.026.
Take TGGAAGGGGT: the switch fluorescence ratio is 1.09 ± 0.14.
TCATCTGTTG: the switch fluorescence ratio came to 1 ± 0.033.
For the sequence ATGCTTATAC, the switch fluorescence ratio was 2.31 ± 0.36.
In the case of TGTTTTTAAG it was 0.99 ± 0.022.
Take AAGTGTATGC: the switch fluorescence ratio came to 1.01 ± 0.038.
Regarding GTGATCTGGG, the switch fluorescence ratio was determined as 0.9689 ± 0.0053.
For TGGATTCCTA, the switch fluorescence ratio came out at 1.002 ± 0.01.
As to ACAGTATGGA, the switch fluorescence ratio was 1 ± 0.011.
In the case of TAAGGGGATG it was 0.99 ± 0.011; in that of CAGTTTGTTT, 0.9881 ± 0.0031.
Turning to TATTTTTT, the switch fluorescence ratio amounted to 1.02 ± 0.027.
In the case of GATAGGGGAT, the switch fluorescence ratio amounted to 0.986 ± 0.031.
In the case of ACCTAATTAG, the switch fluorescence ratio worked out at 1.06 ± 0.073.
Then AGTATGTATG, with 1.02 ± 0.024; and GAAAGTTCGA, with 0.987 ± 0.01.
As to CGAAGGTTGC, the switch fluorescence ratio was 1.01 ± 0.04.
For the sequence TAGCACGCGG, the switch fluorescence ratio is 0.9748 ± 0.0041.
Regarding TTAAGAATTA, the switch fluorescence ratio was 1.03 ± 0.047.
In the case of ATGAATTTTA it was 1 ± 0.031.
As for TCAGGGGGAG, the switch fluorescence ratio was determined as 1.02 ± 0.054.
Turning to AGCTTGTGTG, the switch fluorescence ratio stood at 1.01 ± 0.061.
On to AGTTAAAGCT, for which the switch fluorescence ratio stood at 1.151 ± 0.0063.
As to AGTCAGGGGG, the switch fluorescence ratio turned out to be 1 ± 0.028.
On to ATTTTGTGAT, for which the switch fluorescence ratio was 0.994 ± 0.025.
In the case of GTGACATTAA, the switch fluorescence ratio was 0.998 ± 0.03.
In the case of AGGGTCGCCT it was 1 ± 0.04.
In the case of TGGTTTAAGT it was 0.987 ± 0.027; in that of AGGGATCGG, 1 ± 0.05; in that of AAGACCGTTG, 0.967 ± 0.017.
